Measurements published in patent publication US20180155451A1 (published 2018).

T1: FcγRIIa R (human, UniProt P12318 34-217)
T1 construct: extracellular domain; also called FcgRIIa R type; 2aR
T1 sequence (looked up): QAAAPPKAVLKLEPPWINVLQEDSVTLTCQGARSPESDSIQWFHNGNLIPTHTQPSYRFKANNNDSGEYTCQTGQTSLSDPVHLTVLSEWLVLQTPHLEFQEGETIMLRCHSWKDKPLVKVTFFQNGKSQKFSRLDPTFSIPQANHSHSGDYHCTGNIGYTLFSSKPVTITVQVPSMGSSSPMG

T2: FcγRIIb (human, UniProt P31994 43-217)
T2 construct: extracellular domain; also called FcgRIIb; 2b
T2 sequence (looked up): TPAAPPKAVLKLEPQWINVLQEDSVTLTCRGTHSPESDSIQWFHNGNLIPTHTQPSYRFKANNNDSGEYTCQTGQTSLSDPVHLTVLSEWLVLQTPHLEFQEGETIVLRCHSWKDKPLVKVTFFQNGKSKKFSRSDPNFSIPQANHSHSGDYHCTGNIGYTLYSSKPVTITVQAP


Legend:
[1] = target: T1, FcγRIIa R; assay: SPR; He/Con_2aR divided by He/Con_2b (FcγRIIb as reference)
Procedure: (§1) The heterodimerized antibodies He Abs in which one of the H chains was introduced with an alteration were assayed for their binding activities to each activating FcγR and inhibitory FcγR according to the method described in Example 4. […] The activating FcγRs in FIGS. 26, 27, 28, and 29 are FcγRIa, FcγRIIa (R), FcγRIIa (H), and FcγRIIIa, respectively.
(§2) Analysis of interaction between objective antibody and the FcγR was carried out using Biacore T100 (GE Healthcare). HBS-EP+ (GE Healthcare) was used as the running buffer, and the measurement temperature was set to 25° C. Chips produced by immobilizing the antigen peptide by the amine coupling method to a Series S Sencor Chip CM5 (GE Healthcare), or alternatively, chips produced by allowing preliminarily biotinylated antigen peptides to interact with and immobilize onto a Series S Sensor Chip SA (certified) (GE Healthcare) were used. Antibodies of interest were captured onto an antigen peptide-immobilized chip, and allowed to interact to each FcγR diluted with running buffer. To regenerate and repeatedly use the chip, the antibodies captured on the chip were washed off by reacting 10 mM glycine-HCl, pH 1.5.

[2] = target: T1, FcγRIIa R; assay: SPR (Biacore), antibody captured, FcγR as analyte; relative binding
Procedure: as §1, §2

[3] = target: T2, FcγRIIb; assay: as above
Procedure: as §1, §2

Binder	IIaR/IIb (He_2aR/2b) [1] [ratio]	He/Con_2aR (IIaR binding) [2]	He/Con_2b (IIb binding) [3]
GpH7-A5/GpH7-B3 variant Q295_01G/GpL16-k0 (antibody, human IgG1, kappa, heterodimerized antibody, mutation in the GpH7-B3 chain only; also called He Ab) heavy 1: not shown heavy 2: not shown light: DIVMTQSPLSLPVTPGEPASISCQASESLVHSNRNTYLHWYLQKPGQSPQLLIYKVSNRFSGVPDRFSGSGSGTDFTLKISRVEAEDVGVYYCSQNTHVPPTFGQGTKVEIERTVAAPSVFIFPPSDEQLKSGTASVVCLLNNFYPREAKVQWKVDNALQSGNSQESVTEQDSKDSTYSLSSTLTLSKADYEKHKVYACEVTHQGLSSPVTKSFNRGEC	1.32	60.9 % of GpH7-A5/GpH7-B3/GpL16-k0 (=100)	46 % of GpH7-A5/GpH7-B3/GpL16-k0 (=100)
GpH7-A5/GpH7-B3 variant Q295_11K/GpL16-k0 (antibody, human IgG1, kappa, heterodimerized antibody, mutation in the GpH7-B3 chain only; also called He Ab) heavy 1: not shown heavy 2: not shown light: DIVMTQSPLSLPVTPGEPASISCQASESLVHSNRNTYLHWYLQKPGQSPQLLIYKVSNRFSGVPDRFSGSGSGTDFTLKISRVEAEDVGVYYCSQNTHVPPTFGQGTKVEIERTVAAPSVFIFPPSDEQLKSGTASVVCLLNNFYPREAKVQWKVDNALQSGNSQESVTEQDSKDSTYSLSSTLTLSKADYEKHKVYACEVTHQGLSSPVTKSFNRGEC	1.26	88.9 % of GpH7-A5/GpH7-B3/GpL16-k0 (=100)	70.4 % of GpH7-A5/GpH7-B3/GpL16-k0 (=100)
GpH7-A5/GpH7-B3 variant Q295_05P/GpL16-k0 (antibody, human IgG1, kappa, heterodimerized antibody, mutation in the GpH7-B3 chain only; also called He Ab) heavy 1: not shown heavy 2: not shown light: DIVMTQSPLSLPVTPGEPASISCQASESLVHSNRNTYLHWYLQKPGQSPQLLIYKVSNRFSGVPDRFSGSGSGTDFTLKISRVEAEDVGVYYCSQNTHVPPTFGQGTKVEIERTVAAPSVFIFPPSDEQLKSGTASVVCLLNNFYPREAKVQWKVDNALQSGNSQESVTEQDSKDSTYSLSSTLTLSKADYEKHKVYACEVTHQGLSSPVTKSFNRGEC	1.3	87.4 % of GpH7-A5/GpH7-B3/GpL16-k0 (=100)	67.5 % of GpH7-A5/GpH7-B3/GpL16-k0 (=100)
GpH7-A5/GpH7-B3 variant S298_01G/GpL16-k0 (antibody, human IgG1, kappa, heterodimerized antibody, mutation in the GpH7-B3 chain only; also called He Ab) heavy 1: not shown heavy 2: not shown light: DIVMTQSPLSLPVTPGEPASISCQASESLVHSNRNTYLHWYLQKPGQSPQLLIYKVSNRFSGVPDRFSGSGSGTDFTLKISRVEAEDVGVYYCSQNTHVPPTFGQGTKVEIERTVAAPSVFIFPPSDEQLKSGTASVVCLLNNFYPREAKVQWKVDNALQSGNSQESVTEQDSKDSTYSLSSTLTLSKADYEKHKVYACEVTHQGLSSPVTKSFNRGEC	1.23	98.8 % of GpH7-A5/GpH7-B3/GpL16-k0 (=100)	80.1 % of GpH7-A5/GpH7-B3/GpL16-k0 (=100)
GpH7-A5/GpH7-B3 variant Q295_18N/GpL16-k0 (antibody, human IgG1, kappa, heterodimerized antibody, mutation in the GpH7-B3 chain only; also called He Ab) heavy 1: not shown heavy 2: not shown light: DIVMTQSPLSLPVTPGEPASISCQASESLVHSNRNTYLHWYLQKPGQSPQLLIYKVSNRFSGVPDRFSGSGSGTDFTLKISRVEAEDVGVYYCSQNTHVPPTFGQGTKVEIERTVAAPSVFIFPPSDEQLKSGTASVVCLLNNFYPREAKVQWKVDNALQSGNSQESVTEQDSKDSTYSLSSTLTLSKADYEKHKVYACEVTHQGLSSPVTKSFNRGEC	1.27	82.4 % of GpH7-A5/GpH7-B3/GpL16-k0 (=100)	64.9 % of GpH7-A5/GpH7-B3/GpL16-k0 (=100)
GpH7-A5/GpH7-B3 variant Q295_04F/GpL16-k0 (antibody, human IgG1, kappa, heterodimerized antibody, mutation in the GpH7-B3 chain only; also called He Ab) heavy 1: not shown heavy 2: not shown light: DIVMTQSPLSLPVTPGEPASISCQASESLVHSNRNTYLHWYLQKPGQSPQLLIYKVSNRFSGVPDRFSGSGSGTDFTLKISRVEAEDVGVYYCSQNTHVPPTFGQGTKVEIERTVAAPSVFIFPPSDEQLKSGTASVVCLLNNFYPREAKVQWKVDNALQSGNSQESVTEQDSKDSTYSLSSTLTLSKADYEKHKVYACEVTHQGLSSPVTKSFNRGEC	1.29	83.6 % of GpH7-A5/GpH7-B3/GpL16-k0 (=100)	64.7 % of GpH7-A5/GpH7-B3/GpL16-k0 (=100)
GpH7-A5/GpH7-B3 variant Q295_13S/GpL16-k0 (antibody, human IgG1, kappa, heterodimerized antibody, mutation in the GpH7-B3 chain only; also called He Ab) heavy 1: not shown heavy 2: not shown light: DIVMTQSPLSLPVTPGEPASISCQASESLVHSNRNTYLHWYLQKPGQSPQLLIYKVSNRFSGVPDRFSGSGSGTDFTLKISRVEAEDVGVYYCSQNTHVPPTFGQGTKVEIERTVAAPSVFIFPPSDEQLKSGTASVVCLLNNFYPREAKVQWKVDNALQSGNSQESVTEQDSKDSTYSLSSTLTLSKADYEKHKVYACEVTHQGLSSPVTKSFNRGEC	1.3	73.7 % of GpH7-A5/GpH7-B3/GpL16-k0 (=100)	56.9 % of GpH7-A5/GpH7-B3/GpL16-k0 (=100)
GpH7-A5/GpH7-B3 variant S298_03V/GpL16-k0 (antibody, human IgG1, kappa, heterodimerized antibody, mutation in the GpH7-B3 chain only; also called He Ab) heavy 1: not shown heavy 2: not shown light: DIVMTQSPLSLPVTPGEPASISCQASESLVHSNRNTYLHWYLQKPGQSPQLLIYKVSNRFSGVPDRFSGSGSGTDFTLKISRVEAEDVGVYYCSQNTHVPPTFGQGTKVEIERTVAAPSVFIFPPSDEQLKSGTASVVCLLNNFYPREAKVQWKVDNALQSGNSQESVTEQDSKDSTYSLSSTLTLSKADYEKHKVYACEVTHQGLSSPVTKSFNRGEC	1.34	86.3 % of GpH7-A5/GpH7-B3/GpL16-k0 (=100)	64.5 % of GpH7-A5/GpH7-B3/GpL16-k0 (=100)
GpH7-A5/GpH7-B3 variant Q295_12R/GpL16-k0 (antibody, human IgG1, kappa, heterodimerized antibody, mutation in the GpH7-B3 chain only; also called He Ab) heavy 1: not shown heavy 2: not shown light: DIVMTQSPLSLPVTPGEPASISCQASESLVHSNRNTYLHWYLQKPGQSPQLLIYKVSNRFSGVPDRFSGSGSGTDFTLKISRVEAEDVGVYYCSQNTHVPPTFGQGTKVEIERTVAAPSVFIFPPSDEQLKSGTASVVCLLNNFYPREAKVQWKVDNALQSGNSQESVTEQDSKDSTYSLSSTLTLSKADYEKHKVYACEVTHQGLSSPVTKSFNRGEC	1.27	83 % of GpH7-A5/GpH7-B3/GpL16-k0 (=100)	65.2 % of GpH7-A5/GpH7-B3/GpL16-k0 (=100)
GpH7-A5/GpH7-B3 variant Q295_03V/GpL16-k0 (antibody, human IgG1, kappa, heterodimerized antibody, mutation in the GpH7-B3 chain only; also called He Ab) heavy 1: not shown heavy 2: not shown light: DIVMTQSPLSLPVTPGEPASISCQASESLVHSNRNTYLHWYLQKPGQSPQLLIYKVSNRFSGVPDRFSGSGSGTDFTLKISRVEAEDVGVYYCSQNTHVPPTFGQGTKVEIERTVAAPSVFIFPPSDEQLKSGTASVVCLLNNFYPREAKVQWKVDNALQSGNSQESVTEQDSKDSTYSLSSTLTLSKADYEKHKVYACEVTHQGLSSPVTKSFNRGEC	1.2	91.2 % of GpH7-A5/GpH7-B3/GpL16-k0 (=100)	75.7 % of GpH7-A5/GpH7-B3/GpL16-k0 (=100)
GpH7-A5/GpH7-B3 variant Q295_15Y/GpL16-k0 (antibody, human IgG1, kappa, heterodimerized antibody, mutation in the GpH7-B3 chain only; also called He Ab) heavy 1: not shown heavy 2: not shown light: DIVMTQSPLSLPVTPGEPASISCQASESLVHSNRNTYLHWYLQKPGQSPQLLIYKVSNRFSGVPDRFSGSGSGTDFTLKISRVEAEDVGVYYCSQNTHVPPTFGQGTKVEIERTVAAPSVFIFPPSDEQLKSGTASVVCLLNNFYPREAKVQWKVDNALQSGNSQESVTEQDSKDSTYSLSSTLTLSKADYEKHKVYACEVTHQGLSSPVTKSFNRGEC	1.27	82.8 % of GpH7-A5/GpH7-B3/GpL16-k0 (=100)	65.4 % of GpH7-A5/GpH7-B3/GpL16-k0 (=100)
GpH7-A5/GpH7-B3 variant Q295_16H/GpL16-k0 (antibody, human IgG1, kappa, heterodimerized antibody, mutation in the GpH7-B3 chain only; also called He Ab) heavy 1: not shown heavy 2: not shown light: DIVMTQSPLSLPVTPGEPASISCQASESLVHSNRNTYLHWYLQKPGQSPQLLIYKVSNRFSGVPDRFSGSGSGTDFTLKISRVEAEDVGVYYCSQNTHVPPTFGQGTKVEIERTVAAPSVFIFPPSDEQLKSGTASVVCLLNNFYPREAKVQWKVDNALQSGNSQESVTEQDSKDSTYSLSSTLTLSKADYEKHKVYACEVTHQGLSSPVTKSFNRGEC	1.3	81.3 % of GpH7-A5/GpH7-B3/GpL16-k0 (=100)	62.7 % of GpH7-A5/GpH7-B3/GpL16-k0 (=100)
GpH7-A5/GpH7-B3 variant Q295_20W/GpL16-k0 (antibody, human IgG1, kappa, heterodimerized antibody, mutation in the GpH7-B3 chain only; also called He Ab) heavy 1: not shown heavy 2: not shown light: DIVMTQSPLSLPVTPGEPASISCQASESLVHSNRNTYLHWYLQKPGQSPQLLIYKVSNRFSGVPDRFSGSGSGTDFTLKISRVEAEDVGVYYCSQNTHVPPTFGQGTKVEIERTVAAPSVFIFPPSDEQLKSGTASVVCLLNNFYPREAKVQWKVDNALQSGNSQESVTEQDSKDSTYSLSSTLTLSKADYEKHKVYACEVTHQGLSSPVTKSFNRGEC	1.35	60 % of GpH7-A5/GpH7-B3/GpL16-k0 (=100)	44.4 % of GpH7-A5/GpH7-B3/GpL16-k0 (=100)
GpH7-A5/GpH7-B3 variant S298_04F/GpL16-k0 (antibody, human IgG1, kappa, heterodimerized antibody, mutation in the GpH7-B3 chain only; also called He Ab) heavy 1: not shown heavy 2: not shown light: DIVMTQSPLSLPVTPGEPASISCQASESLVHSNRNTYLHWYLQKPGQSPQLLIYKVSNRFSGVPDRFSGSGSGTDFTLKISRVEAEDVGVYYCSQNTHVPPTFGQGTKVEIERTVAAPSVFIFPPSDEQLKSGTASVVCLLNNFYPREAKVQWKVDNALQSGNSQESVTEQDSKDSTYSLSSTLTLSKADYEKHKVYACEVTHQGLSSPVTKSFNRGEC	1.29	84 % of GpH7-A5/GpH7-B3/GpL16-k0 (=100)	65.4 % of GpH7-A5/GpH7-B3/GpL16-k0 (=100)
GpH7-A5/GpH7-B3 variant S298_02A/GpL16-k0 (antibody, human IgG1, kappa, heterodimerized antibody, mutation in the GpH7-B3 chain only; also called He Ab) heavy 1: not shown heavy 2: not shown light: DIVMTQSPLSLPVTPGEPASISCQASESLVHSNRNTYLHWYLQKPGQSPQLLIYKVSNRFSGVPDRFSGSGSGTDFTLKISRVEAEDVGVYYCSQNTHVPPTFGQGTKVEIERTVAAPSVFIFPPSDEQLKSGTASVVCLLNNFYPREAKVQWKVDNALQSGNSQESVTEQDSKDSTYSLSSTLTLSKADYEKHKVYACEVTHQGLSSPVTKSFNRGEC	1.24	91.2 % of GpH7-A5/GpH7-B3/GpL16-k0 (=100)	73.4 % of GpH7-A5/GpH7-B3/GpL16-k0 (=100)
